Where two headings read alike, the source gives them in different places. Blank lines part the entries; values can stand above or below the binder they belong to. Bridge positions count the residues as written; N and C are the ends. Square brackets hold non-standard residues; d marks the D form. Ends that are not written are not given here. * marks the point of attachment. FITC = O=C1OC2(c3ccc(O)cc3Oc3cc(O)ccc32)c2ccc(NC(=S)*)cc21; Phe(4-NO2) = N[C@@H](Cc1ccc([N+](=O)[O-])cc1)C(=O)O; Gla = N[C@@H](CC(C(=O)O)C(=O)O)C(=O)O; Dap = NC[C@H](N)C(=O)O; AEEA = NCCOCCOCC(=O)O
Tests used:
Assay in all cases: FP
[1] = target: T1, PRMT5-MEP50 complex (full-length, purified) (human | , UniProt O14744 1-637; Q9BQA1 1-342)
T1 sequence (O14744 whole entry, chain 1 of 2): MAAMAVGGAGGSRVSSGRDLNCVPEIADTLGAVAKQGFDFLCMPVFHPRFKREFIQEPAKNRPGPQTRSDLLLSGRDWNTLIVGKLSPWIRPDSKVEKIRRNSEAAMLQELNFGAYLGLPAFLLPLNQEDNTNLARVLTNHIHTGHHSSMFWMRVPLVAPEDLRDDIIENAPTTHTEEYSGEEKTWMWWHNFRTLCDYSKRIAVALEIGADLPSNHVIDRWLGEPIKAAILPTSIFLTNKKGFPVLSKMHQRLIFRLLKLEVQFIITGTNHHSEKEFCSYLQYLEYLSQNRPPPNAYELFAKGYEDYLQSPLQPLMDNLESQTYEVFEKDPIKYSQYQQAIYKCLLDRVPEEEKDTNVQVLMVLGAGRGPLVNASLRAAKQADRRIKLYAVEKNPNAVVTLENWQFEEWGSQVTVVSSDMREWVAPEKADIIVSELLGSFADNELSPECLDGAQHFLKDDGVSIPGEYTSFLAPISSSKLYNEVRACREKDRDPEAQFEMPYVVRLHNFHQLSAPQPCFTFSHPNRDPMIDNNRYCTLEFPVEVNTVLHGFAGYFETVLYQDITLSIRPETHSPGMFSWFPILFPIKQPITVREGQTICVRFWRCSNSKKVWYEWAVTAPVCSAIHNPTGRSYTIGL
T1 sequence (Q9BQA1 whole entry, chain 2 of 2): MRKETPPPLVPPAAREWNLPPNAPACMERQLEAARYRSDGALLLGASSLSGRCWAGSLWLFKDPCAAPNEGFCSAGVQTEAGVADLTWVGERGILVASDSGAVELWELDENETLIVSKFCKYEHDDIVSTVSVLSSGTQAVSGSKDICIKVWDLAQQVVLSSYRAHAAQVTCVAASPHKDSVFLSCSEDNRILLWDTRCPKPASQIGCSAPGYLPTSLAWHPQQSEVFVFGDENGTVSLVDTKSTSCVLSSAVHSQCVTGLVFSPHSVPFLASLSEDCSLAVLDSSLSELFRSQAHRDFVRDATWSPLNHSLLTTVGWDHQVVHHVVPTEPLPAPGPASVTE

[2] = target: T1, PRMT5-MEP50 complex (full-length, …); remark: listed apart in the source
[3] = target: T1, PRMT5-MEP50 complex (full-length, …); remark: listed apart in the source

Ki [1]: 4.5 µM
B1: peptide 2 (RioK1 PBM with D-Ala) (peptide)
chain: SRVVPGQF[dA]DADSSD

Ki [1]: 65 µM
B2: peptide 3 (RioK1 PBM with D-Ala at 14 and 17) (peptide)
chain: SRVVP[dA]QF[dA]DADSSD

Kd [2]: 0.245 µM
B3: linear peptide 40 (29 with Asp replaced by Gla) (peptide)
chain: VPGQFDDA[Gla]
modifications: also: FITC as in peptide 29

Ki [1]: 1.8 µM
B4: peptide 4 (native RioK1 PBM sequence, unlabeled reference) (peptide)
chain: SRVVPGQFDDADSSD
modifications: unlabeled; taken as the same span as the printed RioK1 tracer sequence (7BOC entity 2); end groups are in the figure/SI

Ki [1]: 5.1 µM
B5: peptide 1 (RioK1 PBM with D-Ala) (peptide)
chain: SRVVP[dA]QFDDADSSD

Kd [2]: 0.232 µM
B6: linear peptide 41 (29 with Phe replaced by Phe(4-NO2)) (peptide)
chain: VPGQ[Phe(4-NO2)]DDAD
modifications: also: FITC as in peptide 29

Kd [3]: > 2 µM
B7: 5 (peptide)
chain: {FITC-AEEA}-SRVVP[Dap]QFDDADSSD-NH2
modifications: lactam 6-9; not fully specified

Reference: article PMC9706563 (2022)
